From PMC6817700

Target: T1, T-box 5 (TBX5) (Homo sapiens, UniProt Q99593 1-518)
T1 sequence: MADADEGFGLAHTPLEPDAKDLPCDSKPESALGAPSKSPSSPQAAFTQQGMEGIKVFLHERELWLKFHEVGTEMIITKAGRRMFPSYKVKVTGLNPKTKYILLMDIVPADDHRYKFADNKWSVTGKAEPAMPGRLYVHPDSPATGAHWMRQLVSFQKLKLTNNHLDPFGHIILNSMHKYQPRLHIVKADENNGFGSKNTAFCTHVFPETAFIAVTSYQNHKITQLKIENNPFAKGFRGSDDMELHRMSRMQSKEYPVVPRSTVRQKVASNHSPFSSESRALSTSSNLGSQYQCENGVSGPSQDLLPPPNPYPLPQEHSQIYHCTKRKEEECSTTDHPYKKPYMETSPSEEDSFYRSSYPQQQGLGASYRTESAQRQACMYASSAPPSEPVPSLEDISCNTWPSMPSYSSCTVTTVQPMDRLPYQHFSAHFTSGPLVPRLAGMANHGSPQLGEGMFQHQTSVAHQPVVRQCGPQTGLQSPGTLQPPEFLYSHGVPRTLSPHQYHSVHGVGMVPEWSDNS
Experiment: EMSA

B1: CAGA (rs116461237 G>A) (dsDNA)
DNA 1: GCCCACCTCGGCCTCCCAAAGTTCTAGGATTACAGATGTGAGCTACC
DNA 2: GGTAGCTCACATCTGTAATCCTAGAACTTTGGGAGGCCGAGGTGGGGC
binding result: no binding
